Assay results as given in US20090138978A1 (GENERAL HOSPITAL, published 2009).

Columns and labels:
[1] = target: human PDX-1/IPF-1 mutant P63fsdelC, [35S]-radiolabeled in vitro translated (human) (UniProt P52945); assay: GST pull-down with [35S]-labelled human PDX-1 proteins; reference is wild-type human PDX-1
[2] = target: p300 (full-length histone acetyltransferase and nuclear receptor coactivator) (UniProt Q09472); assay: cell-based or functional assay
[3] = target: Gal4-PDX-1 (Gal4 fusion protein of PDX-1) (UniProt P04386); assay: cell-based or functional assay
GST-p300 (1572-2370) = target: T1, GST-p300 (1572-2370) (UniProt Q09472 1572-2370); assay: GST pull-down with [35S]-labelled in vitro translated Bridge-1
T1 construct: also called carboxy-terminal segment of p300; not shown: glutathione S-transferase
T1 sequence (looked up): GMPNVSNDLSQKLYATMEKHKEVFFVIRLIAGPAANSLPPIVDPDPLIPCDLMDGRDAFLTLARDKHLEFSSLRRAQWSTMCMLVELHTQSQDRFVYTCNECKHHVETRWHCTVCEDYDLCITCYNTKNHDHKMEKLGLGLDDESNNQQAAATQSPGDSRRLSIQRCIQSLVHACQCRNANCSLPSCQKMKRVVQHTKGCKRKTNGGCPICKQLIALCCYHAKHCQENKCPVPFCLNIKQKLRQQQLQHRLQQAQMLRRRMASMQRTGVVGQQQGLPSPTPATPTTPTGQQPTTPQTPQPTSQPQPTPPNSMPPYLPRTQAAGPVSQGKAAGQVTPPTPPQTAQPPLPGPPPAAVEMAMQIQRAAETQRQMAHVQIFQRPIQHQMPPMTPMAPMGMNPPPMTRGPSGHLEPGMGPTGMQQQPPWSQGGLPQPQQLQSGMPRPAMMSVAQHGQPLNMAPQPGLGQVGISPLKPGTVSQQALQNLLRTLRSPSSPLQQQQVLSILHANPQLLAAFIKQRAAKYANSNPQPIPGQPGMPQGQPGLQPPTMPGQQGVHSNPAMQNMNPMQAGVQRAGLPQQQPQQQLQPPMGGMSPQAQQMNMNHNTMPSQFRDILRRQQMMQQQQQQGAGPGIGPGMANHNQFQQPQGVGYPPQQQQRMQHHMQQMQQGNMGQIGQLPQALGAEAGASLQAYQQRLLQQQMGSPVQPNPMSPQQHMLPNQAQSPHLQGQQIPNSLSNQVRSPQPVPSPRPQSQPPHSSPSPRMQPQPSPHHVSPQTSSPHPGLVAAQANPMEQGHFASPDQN

[4] = target: T2, p300 (full-length histone acetyltransferase and nuclear receptor coactivator) (UniProt Q09472 2-2414, limits assumed, [35S]-methionine labelled in the pull-down assays); assay: GST pull-down with [35S]-labelled in vitro translated p300
T2 construct: mature; In vitro translated in rabbit reticulocyte lysate for the pull-downs; Expressed from pCMV-p300 in BHK cells for the reporter assay; also called [35S]-p300; radiolabeled in vitro translated full-length p300
T2 sequence (Q09472 2-2414 limits assumed): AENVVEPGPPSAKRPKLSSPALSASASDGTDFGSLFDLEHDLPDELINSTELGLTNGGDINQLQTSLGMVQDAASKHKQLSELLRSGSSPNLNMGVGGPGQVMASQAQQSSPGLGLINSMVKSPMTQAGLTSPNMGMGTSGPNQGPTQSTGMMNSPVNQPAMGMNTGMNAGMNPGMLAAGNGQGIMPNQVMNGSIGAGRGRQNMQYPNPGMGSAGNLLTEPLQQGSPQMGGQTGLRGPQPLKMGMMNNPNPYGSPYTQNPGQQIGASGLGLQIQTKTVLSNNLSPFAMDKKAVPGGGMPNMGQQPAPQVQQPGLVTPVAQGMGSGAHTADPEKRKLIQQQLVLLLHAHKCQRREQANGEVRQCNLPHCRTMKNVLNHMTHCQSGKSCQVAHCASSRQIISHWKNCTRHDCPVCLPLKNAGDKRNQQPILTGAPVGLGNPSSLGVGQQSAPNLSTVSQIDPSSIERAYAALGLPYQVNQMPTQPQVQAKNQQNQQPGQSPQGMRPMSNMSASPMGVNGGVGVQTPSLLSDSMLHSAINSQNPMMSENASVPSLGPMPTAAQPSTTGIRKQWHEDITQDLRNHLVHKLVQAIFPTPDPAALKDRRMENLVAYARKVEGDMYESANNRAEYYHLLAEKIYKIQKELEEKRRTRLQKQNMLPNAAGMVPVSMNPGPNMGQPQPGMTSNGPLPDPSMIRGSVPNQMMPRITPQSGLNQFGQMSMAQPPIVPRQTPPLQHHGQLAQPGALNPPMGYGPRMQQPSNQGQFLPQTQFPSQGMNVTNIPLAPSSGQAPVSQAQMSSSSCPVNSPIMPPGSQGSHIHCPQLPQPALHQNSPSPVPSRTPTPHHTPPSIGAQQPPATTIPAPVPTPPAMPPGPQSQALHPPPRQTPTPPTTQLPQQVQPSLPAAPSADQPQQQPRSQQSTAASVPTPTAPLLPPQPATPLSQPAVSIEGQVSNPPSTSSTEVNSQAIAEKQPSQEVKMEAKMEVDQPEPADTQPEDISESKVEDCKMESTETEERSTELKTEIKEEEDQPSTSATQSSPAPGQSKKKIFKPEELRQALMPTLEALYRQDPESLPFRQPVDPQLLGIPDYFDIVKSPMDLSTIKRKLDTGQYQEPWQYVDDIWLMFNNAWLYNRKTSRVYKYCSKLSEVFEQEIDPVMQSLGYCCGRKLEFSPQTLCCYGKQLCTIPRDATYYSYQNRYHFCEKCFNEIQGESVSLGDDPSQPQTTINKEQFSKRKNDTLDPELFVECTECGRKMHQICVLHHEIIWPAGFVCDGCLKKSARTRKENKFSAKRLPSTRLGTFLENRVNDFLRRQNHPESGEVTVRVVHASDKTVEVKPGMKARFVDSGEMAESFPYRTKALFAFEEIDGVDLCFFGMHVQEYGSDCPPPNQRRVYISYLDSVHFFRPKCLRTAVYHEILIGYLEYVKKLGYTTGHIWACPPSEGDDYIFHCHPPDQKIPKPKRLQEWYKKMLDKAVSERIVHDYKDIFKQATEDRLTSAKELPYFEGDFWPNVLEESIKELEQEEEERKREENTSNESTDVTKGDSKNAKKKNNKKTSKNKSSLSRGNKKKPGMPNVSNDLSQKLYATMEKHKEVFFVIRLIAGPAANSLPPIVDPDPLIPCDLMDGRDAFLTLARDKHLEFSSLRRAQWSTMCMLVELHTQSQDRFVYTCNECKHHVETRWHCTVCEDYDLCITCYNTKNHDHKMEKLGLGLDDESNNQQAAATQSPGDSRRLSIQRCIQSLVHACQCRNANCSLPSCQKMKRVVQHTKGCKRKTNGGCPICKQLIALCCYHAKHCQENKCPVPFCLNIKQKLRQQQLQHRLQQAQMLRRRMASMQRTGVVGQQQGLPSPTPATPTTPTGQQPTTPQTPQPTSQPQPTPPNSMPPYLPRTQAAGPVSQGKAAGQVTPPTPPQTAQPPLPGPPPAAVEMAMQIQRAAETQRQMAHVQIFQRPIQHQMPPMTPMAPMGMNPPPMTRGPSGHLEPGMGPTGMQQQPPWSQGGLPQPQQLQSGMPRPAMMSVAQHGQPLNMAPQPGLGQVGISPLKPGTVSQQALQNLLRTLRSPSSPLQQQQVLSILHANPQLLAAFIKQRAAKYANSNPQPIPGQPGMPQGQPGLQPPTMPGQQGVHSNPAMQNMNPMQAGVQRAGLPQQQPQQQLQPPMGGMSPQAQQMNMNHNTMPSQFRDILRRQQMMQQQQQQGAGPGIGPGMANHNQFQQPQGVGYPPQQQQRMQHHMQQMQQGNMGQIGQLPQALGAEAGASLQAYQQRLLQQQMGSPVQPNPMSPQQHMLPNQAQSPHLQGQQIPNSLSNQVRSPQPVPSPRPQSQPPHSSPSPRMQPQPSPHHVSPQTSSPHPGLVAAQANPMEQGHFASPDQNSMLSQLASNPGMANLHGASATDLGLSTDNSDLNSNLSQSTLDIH

[5] = target: T3, LexA-rat PDX-1 bait fusion protein (PDX-1 amino acids 160-283) (rat, UniProt P52947 160-283); assay: yeast two-hybrid interaction trap; - means no growth on leucine dropout plates and white colonies on X-gal plates
T3 construct: range 160-283; also called carboxy-terminal PDX-1 protein fragment; not shown: LexA moiety encoded by the yeast bait vector pEG202
T3 sequence (P52947 160-283 limits assumed): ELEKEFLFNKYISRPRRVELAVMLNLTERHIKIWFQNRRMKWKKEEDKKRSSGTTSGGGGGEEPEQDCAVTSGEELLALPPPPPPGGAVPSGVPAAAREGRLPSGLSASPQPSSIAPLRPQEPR

human PDX-1/IPF-1 mutant P63fsdelC, [35S]-radiolabeled in vitro translated (human), sequence (P52945 1-62, stated change not applied): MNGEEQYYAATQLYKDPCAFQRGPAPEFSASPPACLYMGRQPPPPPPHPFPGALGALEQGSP
p300 (full-length histone acetyltransferase and nuclear receptor coactivator) (UniProt Q09472), sequence (Q09472 2-2414 limits assumed): as the sequence (Q09472 2-2414 limits assumed) above

**Q.** How did the fold stronger interaction as compared to the wild-type PDX-1 protein [1] turn out when “GST-Bridge-1 (glutathione-S-transferase fused to full-length rat Bridge-1) (from UniProt P08515 1-218)” was run?
**A.** > 2 fold

**Q.** Which results are given for “Gal4-Bridge-1 (Gal4 DNA-binding domain fused to full-length rat Bridge-1) (from UniProt P04386 1-147)”?
**A.** activation of a Gal4-CAT reporter in transfected BHK cells [2]: > 70 fold; activation of a Gal4-CAT reporter in transfected BHK cells [3]: 76 fold

B1: rat Bridge-1 (full-length, 1-222) (other)
chain: MSSEEVRHRAESSEARAAAVSDIQELMRRKEEIEAQIKANYDVLESQKGIGMNEPLVDCEGYPRADVDLYQVRTARHNIICLQNDHKALMKQVEEALHQLHARDKEKQARDMAEAREEAMNRRLASDSPALPKAFARVNSISPGSPASIAGLQVDDEIVEFGSVNTQNFQSLQNVGTVVQHSEGKPLNVMVIRRGEKHQLRLTPTRWAGKGLLGCNITPLQR
modifications: [35S]-methionine labelled in the pull-down assays
notes: In vitro translated from pcDNA3-Bridge-1 in rabbit reticulocyte lysate for the pull-downs; Expressed from the same vector in BHK and HeLa cells for the reporter assays; also called [35S]-Bridge-1; radiolabeled in vitro translated Bridge-1
**Q.** Does B1 bind (GST-p300 (1572-2370))?
**A.** no binding

B2: GST-Bridge-1 (D156P) (other)
chain: MSSEEVRHRAESSEARAAAVSDIQELMRRKEEIEAQIKANYDVLESQKGIGMNEPLVDCEGYPRADVDLYQVRTARHNIICLQNDHKALMKQVEEALHQLHARDKEKQARDMAEAREEAMNRRLASDSPALPKAFARVNSISPGSPASIAGLQVDPEIVEFGSVNTQNFQSLQNVGTVVQHSEGKPLNVMVIRRGEKHQLRLTPTRWAGKGLLGCNITPLQR
notes: also called mutant GST-Bridge-1 fusion protein D156P; not shown: N-terminal glutathione-S-transferase carrier encoded by pGEX-5X-1, plus the short vector-derived linker
**Q.** Does B2 bind [4]?
**A.** no binding

B3: rat inhibitor of differentiation-3 (Id3) (yeast interaction trap control protein) (other, UniProt P41138 1-119, looked up)
chain: MKALSPVRGCYEAVCCLSERSLAIARGRGKSPSAEEPLSLLDDMNHCYSRLRELVPGVPRGTQLSQVEILQRVIDYILDLQVVLAEPAPGPPDGPHLPIQTAELTPELVISKDKRSFCH
notes: Control protein tested against the PDX-1 bait
**Q.** Does B3 bind [5]?
**A.** no binding
